Source: US20110195896A1, “ISOFORM-SPECIFIC INSULIN ANALOGUES” (CASE WESTERN RESERVE UNIVERSITY, priority 2008, published 2011)

Assays:
[1] = target: human insulin receptor isoform B (human) (UniProt P06213); experiment: competitive displacement of 125I-insulin from receptor
[2] = target: human insulin receptor isoform B (human) (UniProt P06213); experiment: competitive displacement of 125I-human insulin, FLAG-tagged receptor captured on anti-FLAG plate; conditions: scale: % of the affinity of human insulin for IR-A

Chain of His^A8, Asp^B10, Asp^B28, Pro^B29 insulin (two chain analogue) (ligand) (chain): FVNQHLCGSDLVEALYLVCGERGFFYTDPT
Chain of His^A8, Asp^B10, Asp^B28, Pro^B29 insulin (two chain analogue) (ligand) (chain): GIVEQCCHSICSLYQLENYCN

Substance | Kd [1] | relative affinity (relative to human insulin) [1] | relative affinity [2]
His^A8, Asp^B10, Asp^B28, Pro^B29 insulin (two chain analogue) (ligand) | 0.01 nM | 4.7 | –
Insulin-like Growth Factor 1 (from UniProt P05019 49-118) (ligand) | – | – | 0.7
insulin-like growth factor II (from UniProt P01344 25-91) (ligand) | – | – | 4
